The values below come from patent US20210332145A1 (SINGLE CELL TECHNOLOGY, published 2021).

Positions count from the first letter of the chain named.

Assay [1] has as its target T1, mouse BCMA with a His tag (ACROBiosystems, Catalog No.: BCA-M52H3) (mouse).
T1 construct: Bought His-tagged recombinant protein
T1 chain: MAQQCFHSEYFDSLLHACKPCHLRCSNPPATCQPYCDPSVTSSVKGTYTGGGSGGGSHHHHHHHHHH
In words: ELISA, plate-coated mouse BCMA-His. On the procedure:
(§1) The recombinantly expressed antibodies were used to assess binding activity to BCMA of different species origins by conventional ELISA according to the known art. Recombinant human BCMA, cyno BCMA, and mouse BCMA were coated onto ELISA plates to detect binding at serially diluted concentrations of the anti-BCMA antibody preparations.
(§2) The ability for antibodies of the present disclosure to bind human BCMA was measured with an ELISA assay. For the BCMA binding assay, a 96-well plate (Nunc) is coated with human BCMA with a His tag (ACROBiosystems, Catalog No.: AC108P1-180611F2-Bulk, SEQ ID NO:2) at 0.2 μg/well overnight at 4° C. Wells are blocked for 2 h with blocking buffer (PBS containing 3% bovine serum albumin). Wells are washed three times with PBS containing 0.1% Tween-20. Anti-human BCMA antibodies of the present disclosure or control IgG (100 μL) is then added and incubated at room temperature for 1 h. After washing, the plate is incubated with 100 μL of goat anti-mouse IgG Fcγ Fragment Specific-HRP conjugate (Jackson ImmunoResearch) at room temperature for 1 h. The plates are washed and then incubated with 100 μL of 3,3′,5,5′-tetra-methylbenzidine. The absorbance at 450 nm is read on a microplate reader. The half maximal effective concentration (EC50) is calculated using GraphPad Prism 6 software.
In experiments performed essentially as described above, anti-human BCMA antibodies of the present disclosure bind mouse BCMA with a His tag (ACROBiosystems, Beijing, China, Catalog No.: BCA-M52H3, SEQ ID NO:109) with an EC50 values shown in Table 5.

Assay [2] has as its target T2, BCMA on cells (293T cells transfected with BCMA; H929, MM.1S and U266 cell lines expressing BCMA) (human, UniProt Q02223 1-184).
T2 construct: H929, MM.1S and U266 carry the native protein; also called B-cell Maturation Antigen; TNFRSF17
T2 sequence: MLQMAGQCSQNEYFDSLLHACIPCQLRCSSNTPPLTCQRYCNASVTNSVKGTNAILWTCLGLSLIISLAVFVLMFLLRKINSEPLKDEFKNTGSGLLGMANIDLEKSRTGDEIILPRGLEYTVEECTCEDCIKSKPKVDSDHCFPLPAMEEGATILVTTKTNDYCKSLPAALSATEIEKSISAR
In words: flow cytometry, H929 cells. On the procedure:
A cell line expressing BCMA, H929, was used to assess binding by anti-BCMA antibodies on the native protein on the cell surface by flow cytometry according to the known art. A subset of anti-human BCMA antibodies were assayed for binding to H929 and the fraction of cells bound the labeled antibody above background defined by control is shown in Table 8.
(In general: In flow cytometry, cells or beads pass a laser one at a time.)

For assay [3], the target named is T2, BCMA on cells (293T cells transfected …). Description: flow cytometry, H929 cells. The source holds these as a separate data set.
Assay [4] deals with T3, human BCMA with a His tag (ACROBiosystems, Catalog No.: BCA-H522y) (human).
T3 construct: Bought His-tagged recombinant protein; also called huBCMA-His; Recombinant human BCMA
T3 chain: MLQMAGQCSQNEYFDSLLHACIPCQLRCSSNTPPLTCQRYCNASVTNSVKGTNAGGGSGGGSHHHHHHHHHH
In words: SPR, Biacore T200. On the procedure:
The binding affinity of select anti-BCMA was measured on a surface plasmon resonance (SPR) instrument, Biacore T200™, against human BCMA by a method known in the art.
In experiments performed essentially as described above, a subset of anti-human BCMA antibodies of the present disclosure bind human BCMA with a His tag (ACROBiosystems, Beijing, China, Catalog No.: BCA-H522y, SEQ ID NO:2) with affinity shown in Table 6.

Assay [5] has as its target T3, human BCMA with a His tag …. Description: ELISA, plate-coated human BCMA-His. On the procedure: as §1, §2
In experiments performed essentially as described above, anti-human BCMA antibodies of the present disclosure bind human BCMA with a His tag (ACROBiosystems, Beijing, China, Catalog No.: BCA-H522y, SEQ ID NO:2) with an EC50 values shown in Table 3.
A general note: ELISA stands for enzyme-linked immunosorbent assay.

Assay [6] deals with T2, BCMA on cells (293T cells transfected …). In words: flow cytometry, 293T cells transfected with BCMA, above parental 293T background.

In general, EC50 refers to the concentration at which the effect is half-maximal. A high value points to a less potent agent. By Kd is commonly meant the constant that tells how readily two partners part at equilibrium. Higher therefore signals lower affinity. For orientation: koff means the first-order rate constant of dissociation. High values mean fast dissociation, low ones slow dissociation. For orientation: kon means the rate constant with which the complex forms.

B1: SCT-Aa08(h/h) (antibody, V domains shown)
VH: QVQLQQSDAELVKPGASVKISCKVSGYTFIDHTIHWMKQRPEQGLEWIGYIYPRIDSSKCNEKFKDKATLTADKSSNTAYIQLNSLTSEDSAVYFCARWDYEGFDYWGQGTTLTVSS
VL: DIVMTQSPATLSVTPGDRVSLSCRASQSISDYLHWYQQKSHESPRLLIKYASQSISGIPSRFSGSGSGSDFTLSINSVEPEDVGVYYCQNGHSFPPTFGSGTKLEIK
notes: Full IgG format, chimeric: human IgG1 heavy chain constant region, human kappa light chain constant region
With B1, the EC50 in assay [1] worked out at 377 ng/mL. Further, the “Positive (%)” value in assay [2] came out at 92.5%. For the same molecule, the Mean fluorescent intensity in assay [3] is 454. In assay [4], this molecule registered a Kd of 17.6 nM, a dissociation rate constant (koff) of 0.0592 s⁻¹ and an on-rate (kon) of 3.36e+06 M⁻¹ s⁻¹. Also, the EC50 in assay [5] is 3.74 ng/mL. The “Positive (%)” value in assay [6] is 57.5%.

B2: SCT-Aa19(h/h) (antibody, V domains shown)
VH: QVQLQQSGPELVKPGASVRISCKASGCTFTDYYIHWVKQRPGQGLEWIGWIYPGNLNSKFNEKFRDKATLTADNSSSTAYMQLSSLTSEDSAVYFCARYNYEGYFDYWGQGTTLTVSS
VL: B1 VL with S30A, Y32S, Q53H, S63R, P96L, S100A, I106L
notes: as for B1
For the molecule B2, in assay [2], the “Positive (%)” value amounted to 85.1%. In addition, the Mean fluorescent intensity in assay [3] is 351. In addition, in assay [4], binding was characterised by a dissociation constant (Kd) of 1.19 nM, the koff was determined as 0.0062 s⁻¹ and the kon came out at 5.21e+06 M⁻¹ s⁻¹. For the same molecule, in assay [5], the midpoint of the response, the EC50, lay at 3.38 ng/mL. For the same molecule, the “Positive (%)” value in assay [6] is 51%.

B3: SCT-Aa14(m/m) (antibody, V domains shown)
VH: B1 VH with G26S, I30T, Y52F, I55D, D56G, S58T, C60Y, D66G, N77S, I81M
VL: B1 VL with S28N
notes: Full IgG format: mouse IgG1 heavy chain constant region, mouse kappa light chain constant region
B3: the half-maximal effective concentration (EC50) in assay [1] came to 2340 ng/mL. Also, the “Positive (%)” value in assay [2] stood at 75.1%. In assay [3], this molecule gave a Mean fluorescent intensity of 475. In assay [4], this molecule returned a dissociation constant (Kd) of 20.4 nM, a koff of 0.0376 s⁻¹ and a kon of 1.85e+06 M⁻¹ s⁻¹. In assay [5], this molecule gave a concentration for a half-maximal effect (EC50) of 2.52 ng/mL. Also, in assay [6], the “Positive (%)” value was found to be 52.2%.

B4: SCT-Aa15(h/h) (antibody, V domains shown)
VH: QVQLQQSDAELVKPGPSVKISCKVSGSTFTDHTVHWMKQRPEQGLEWIGYVYPRDGSTRYNEKFKGKATLTADKSSSTAYMQLNSLTSEDSAVYFCARWDYEGFDYWGQGTTLTVSS
VL: B1 VL with S28N, E105K
notes: as for B1
On to B4, for which a half-maximal response in assay [1] (EC50) required 226 ng/mL. The “Positive (%)” value in assay [2] was 34.8%. The molecule further displayed a Mean fluorescent intensity in assay [3] of 141. In assay [4], this molecule came in with a dissociation constant (Kd) of 1.19 nM, a koff of 0.0062 s⁻¹ and a kon of 5.21e+06 M⁻¹ s⁻¹. Moreover, the EC50 in assay [5] turned out to be 3.71 ng/mL. For the same molecule, the “Positive (%)” value in assay [6] stood at 32%.

B5: SCT-Aa11(h/h) (antibody, V domains shown)
VH: B4 VH with P16A, S27Y, V34I, V51I, Y52F, S57T, R59K, Y60F, K63M, Q82E
VL: B1 VL with S54F, S63R
notes: as for B1
With B5, the “Positive (%)” value in assay [2] was found to be 53.7%. The molecule further returned a Mean fluorescent intensity in assay [3] of 179. Further, in assay [4], the Kd stood at 47.1 nM, the koff turned out to be 0.113 s⁻¹ and the kon worked out at 2.4e+06 M⁻¹ s⁻¹. This molecule registered a concentration for a half-maximal effect (EC50) in assay [5] of 3.85 ng/mL. Besides, the “Positive (%)” value in assay [6] was determined as 34.9%.

B6: SCT-Aa10(h/h) (antibody, V domains shown)
VH: B4 VH with P16A, S27Y, V34I, V51I, Y52F, S57N, R59K, L70M, Y106C
VL: B1 VL with Y87F
notes: as for B1
On to B6, for which the half-maximal effective concentration (EC50) in assay [1] is 941 ng/mL. The “Positive (%)” value in assay [2] turned out to be 85.5%. Besides, in assay [3], the Mean fluorescent intensity was 495. In addition, in assay [4], the Kd was 9.17 nM, the off-rate (koff) stood at 0.0284 s⁻¹ and the on-rate (kon) is 3.1e+06 M⁻¹ s⁻¹. In assay [5], this molecule gave an EC50 of 2.86 ng/mL. Further, the “Positive (%)” value in assay [6] came out at 57.9%.

B7: SCT-Aa10(m/m) (antibody, V domains shown)
VH: B4 VH with P16A, S27Y, V34I, V51I, Y52F, S57N, R59K, L70M, Y106C
VL: B1 VL with Y87F
notes: as for B3
As to B7, the EC50 in assay [1] turned out to be 8030 ng/mL; in assay [5] it was 2.57 ng/mL. The “Positive (%)” value was determined as 99.9% in assay [2] and 82.9% in assay [6]. In assay [3], this molecule registered a Mean fluorescent intensity of 2960. The Kd in assay [4] worked out at 9.56 nM. This molecule also had an off-rate (koff) in assay [4] of 0.0224 s⁻¹. In assay [4], this molecule came in with a kon of 2.34e+06 M⁻¹ s⁻¹.

B8: SCT-Aa11(m/m) (antibody, V domains shown)
VH: B4 VH with P16A, S27Y, V34I, V51I, Y52F, S57T, R59K, Y60F, K63M, Q82E
VL: B1 VL with S54F, S63R
notes: as for B3
For B8, the “Positive (%)” value in assay [2] was found to be 99.9%. In addition, in assay [3], the Mean fluorescent intensity was determined as 1520. Moreover, in assay [4], the Kd was 42 nM, the koff stood at 0.0945 s⁻¹ and the kon stood at 2.25e+06 M⁻¹ s⁻¹. This molecule also displayed a 50% effective concentration (EC50) in assay [5] of 2.38 ng/mL. In assay [6], the “Positive (%)” value is 34.6%.

B9: SCT-Aa08(m/m) (antibody, V domains shown)
VH: B1 VH
VL: B1 VL
notes: as for B3
Consider B9, for which the concentration giving a half-maximal response (EC50) in assay [1] came out at 682 ng/mL. In assay [2], the “Positive (%)” value was found to be 99.9%. The Mean fluorescent intensity in assay [3] is 1820. For the same molecule, in assay [4], the Kd was determined as 15.7 nM, the koff came to 0.0527 s⁻¹ and the on-rate (kon) came out at 3.36e+06 M⁻¹ s⁻¹. Besides, in assay [5], the EC50 was determined as 2.46 ng/mL. Also, the “Positive (%)” value in assay [6] was 70.6%.

B10: SCT-Aa06(m/m) (antibody, V domains shown)
VH: EVQLQQSGPELVKPGNSVKISCKASGYSFTGYFMNWVMQSHGKSLEWIGRINPYNGDTFYNQKFKGKATLTVDKSSSTAHMELRSLTSEDSAVYYCARLDYTNYNSYPMDYWGQGTSVTVSS
VL: DIQMTHTTSSLSASLGDRVTISCSASQGISNYLNWYLQKPDGTVKLLIYYTSNLHSGVPSRFSGSGSGTDFSLTISNLQPEDIATYYCQQYSKFPWTFGGGTKLEIK
notes: as for B3
Take B10: the “Positive (%)” value in assay [2] amounted to 99.9%. For the same molecule, the Mean fluorescent intensity in assay [3] came out at 4300. Also, in assay [4], the affinity, expressed as Kd, was 5.16 nM; the off-rate (koff) was 0.0163 s⁻¹; the kon amounted to 3.15e+06 M⁻¹ s⁻¹. The same molecule registered an EC50 in assay [5] of 2.34 ng/mL. For the same molecule, the “Positive (%)” value in assay [6] is 91.6%.

B11: SCT-Aa01(h/h) (antibody, V domains shown)
VH: DVQLQESGPGLVKPSQSLSLTCSVTGYSITSGYYWNWIRQFPGNKLEWMGYIRYDGSNNYNPSLKNRISITRDTSKNQFFLKLNSVTTEDTATYYCAPYDYDYAMDFWGQGTSVTVSS
VL: DIQMTQSPASLSASVGETVTITCRASGNIHNYLAWYQQKQGKSPQLLVYNAKTLAHGVPSRFSGSGSGTQYSLKITSLQPEDFGTYYCQHFWSTPFTFGSGTKLEIK
notes: as for B1
Consider B11, for which the “Positive (%)” value in assay [2] is 55.2%. The molecule further came in with a Mean fluorescent intensity in assay [3] of 411. For the same molecule, in assay [4], the affinity, expressed as Kd, was 43.4 nM; the koff stood at 0.0355 s⁻¹; the association rate constant (kon) amounted to 819000 M⁻¹ s⁻¹. This molecule also came in with an EC50 in assay [5] of 3.38 ng/mL. Besides, in assay [6], the “Positive (%)” value is 12.3%.
